Paper PMC7954794, “Protein context shapes the specificity of SH3 domain-mediated interactions in vivo” (Nature Communications, 2021)

System: Abp1 PPIs
Test: DHFR-PCA of Abp1 SH3-swapped baits (Fig. 2B-D, S2C, S2F);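 as to Protein-protein interaction distance between Abp1 SH3-swapped baits, to ABP1: Euclidean distance between DHFR-PCA score profiles of the baits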;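 as to Protein-protein interaction distance between Abp1 SH3-swapped baits, to BEM1-2: Euclidean distance between DHFR-PCA score profiles of the baits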;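 as to Protein-protein interaction distance between Abp1 SH3-swapped baits, to BOI1: Euclidean distance between DHFR-PCA score profiles of the baits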;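 as to Protein-protein interaction distance between Abp1 SH3-swapped baits, to BZZ1-1: Euclidean distance between DHFR-PCA score profiles of the baits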
Assay type: cell-based, Saccharomyces cerevisiae
Settings: sheet Fig2C; for Protein-protein interaction distance between Abp1 SH3-swapped baits, to ABP1: Abp1 bait with swapped SH3, distance to bait with ABP1 SH3; for Protein-protein interaction distance between Abp1 SH3-swapped baits, to BBC1: distance to Abp1 bait with BBC1 SH3; for Protein-protein interaction distance between Abp1 SH3-swapped baits, to BEM1-1: distance to Abp1 bait with BEM1-1 SH3; for Protein-protein interaction distance between Abp1 SH3-swapped baits, to BEM1-2: distance to Abp1 bait with BEM1-2 SH3; for Protein-protein interaction distance between Abp1 SH3-swapped baits, to BOI1: distance to Abp1 bait with BOI1 SH3; for Protein-protein interaction distance between Abp1 SH3-swapped baits, to BOI2: distance to Abp1 bait with BOI2 SH3; for Protein-protein interaction distance between Abp1 SH3-swapped baits, to BUD14: distance to Abp1 bait with BUD14 SH3; for Protein-protein interaction distance between Abp1 SH3-swapped baits, to BZZ1-1: distance to Abp1 bait with BZZ1-1 SH3; for Protein-protein interaction distance between Abp1 SH3-swapped baits, to BZZ1-2: distance to Abp1 bait with BZZ1-2 SH3; for Protein-protein interaction distance between Abp1 SH3-swapped baits, to CDC25: distance to Abp1 bait with CDC25 SH3; for Protein-protein interaction distance between Abp1 SH3-swapped baits, to CTTN: distance to Abp1 bait with CTTN SH3; for Protein-protein interaction distance between Abp1 SH3-swapped baits, to CYK3: distance to Abp1 bait with CYK3 SH3; for Protein-protein interaction distance between Abp1 SH3-swapped baits, to DBNL: distance to Abp1 bait with DBNL SH3; for Protein-protein interaction distance between Abp1 SH3-swapped baits, to FUS1: distance to Abp1 bait with FUS1 SH3; for Protein-protein interaction distance between Abp1 SH3-swapped baits, to HCLS1: distance to Abp1 bait with HCLS1 SH3; for Protein-protein interaction distance between Abp1 SH3-swapped baits, to HOF1: distance to Abp1 bait with HOF1 SH3; for Protein-protein interaction distance between Abp1 SH3-swapped baits, to HSE1: distance to Abp1 bait with HSE1 SH3; for Protein-protein interaction distance between Abp1 SH3-swapped baits, to LSB1: distance to Abp1 bait with LSB1 SH3; for Protein-protein interaction distance between Abp1 SH3-swapped baits, to LSB3: distance to Abp1 bait with LSB3 SH3; for Protein-protein interaction distance between Abp1 SH3-swapped baits, to MYO3: distance to Abp1 bait with MYO3 SH3; for Protein-protein interaction distance between Abp1 SH3-swapped baits, to MYO5: distance to Abp1 bait with MYO5 SH3; for Protein-protein interaction distance between Abp1 SH3-swapped baits, to NBP2: distance to Abp1 bait with NBP2 SH3; for Protein-protein interaction distance between Abp1 SH3-swapped baits, to PEX13: distance to Abp1 bait with PEX13 SH3; for Protein-protein interaction distance between Abp1 SH3-swapped baits, to PIN3: distance to Abp1 bait with PIN3 SH3; for Protein-protein interaction distance between Abp1 SH3-swapped baits, to RVS167: distance to Abp1 bait with RVS167 SH3; for Protein-protein interaction distance between Abp1 SH3-swapped baits, to SDC25: distance to Abp1 bait with SDC25 SH3; for Protein-protein interaction distance between Abp1 SH3-swapped baits, to SHO1: distance to Abp1 bait with SHO1 SH3; for Protein-protein interaction distance between Abp1 SH3-swapped baits, to SLA1-1: distance to Abp1 bait with SLA1-1 SH3; for Protein-protein interaction distance between Abp1 SH3-swapped baits, to SLA1-2: distance to Abp1 bait with SLA1-2 SH3; for Protein-protein interaction distance between Abp1 SH3-swapped baits, to SLA1-3: distance to Abp1 bait with SLA1-3 SH3; for Protein-protein interaction distance between Abp1 SH3-swapped baits, to YSC84: distance to Abp1 bait with YSC84 SH3
Method in brief: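 Interactions were scored by DHFR protein-fragment complementation. DHFR F[1,2]-tagged Abp1 strains, whose SH3 was swapped for yeast or human ortholog domains, were crossed on YPD at 30 °C for 48 h with a 1536-format array of 575 prey-DHFR F[3] strains and 40 negatives, giving four replicates per pair. PCA selection lasted 4 days after double diploid selection.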

B1: FUS1 (protein, UniProt P11710 1-512, looked up)
Nuclear fusion protein FUS1: MVATIMQTTTTVLTTVAAMSTTLASNYISSQASSSTSVTTVTTIATSIRSTPSNLLFSNVAAQPKSSSASTIGLSIGLPIGIFCFGLLILLCYFYLKRNSVSISNPPMSATIPREEEYCRRTNWFSRLFWQSKCEDQNSYSNRDIEKYNDTQWTSGDNMSSKIQYKISKPIIPQHILTPKKTVKNPYAWSGKNISLDPKVNEMEEEKVVDAFLYTKPPNIVHIESSMPSYNDLPSQKTVSSKKTALKTSEKWSYESPLSRWFLRGSTYFKDYGLSKTSLKTPTGAPQLKQMKMLSRISKGYFNESDIMPDERSPILEYNNTPLDANDSVNNLGNTTPDSQITSYRNNNIDLITARPHSVIYGTTAQQTLETNFNDHHDCNKSTEKHELIIPTPSKPLKKRKKRRQSKMYQHLQHLSRSKPLPLTPNSKYNGEASVQLGKTYTVIQDYEPRLTDEIRISLGEKVKILATHTDGWCLVEKCNTQKGSIHVSVDDKRYLNEDRGIVPGDCLQEYD
- Protein-protein interaction distance between Abp1 SH3-swapped baits, to ABP1: 18.44
- Protein-protein interaction distance between Abp1 SH3-swapped baits, to BBC1: 16.64
- Protein-protein interaction distance between Abp1 SH3-swapped baits, to BEM1-1: 8.021
- Protein-protein interaction distance between Abp1 SH3-swapped baits, to BEM1-2: 22.67
- Protein-protein interaction distance between Abp1 SH3-swapped baits, to BOI1: 12.53
- Protein-protein interaction distance between Abp1 SH3-swapped baits, to BOI2: 10.5
- Protein-protein interaction distance between Abp1 SH3-swapped baits, to BUD14: 7.121
- Protein-protein interaction distance between Abp1 SH3-swapped baits, to BZZ1-1: 17.24
- Protein-protein interaction distance between Abp1 SH3-swapped baits, to BZZ1-2: 12.64
- Protein-protein interaction distance between Abp1 SH3-swapped baits, to CDC25: 14.2
- Protein-protein interaction distance between Abp1 SH3-swapped baits, to CTTN: 13.46
- Protein-protein interaction distance between Abp1 SH3-swapped baits, to CYK3: 14.91
- Protein-protein interaction distance between Abp1 SH3-swapped baits, to DBNL: 16.42
- Protein-protein interaction distance between Abp1 SH3-swapped baits, to FUS1: 0.00
- Protein-protein interaction distance between Abp1 SH3-swapped baits, to HCLS1: 20.02
- Protein-protein interaction distance between Abp1 SH3-swapped baits, to HOF1: 21.29
- Protein-protein interaction distance between Abp1 SH3-swapped baits, to HSE1: 16.23
- Protein-protein interaction distance between Abp1 SH3-swapped baits, to LSB1: 23.45
- Protein-protein interaction distance between Abp1 SH3-swapped baits, to LSB3: 23.48
- Protein-protein interaction distance between Abp1 SH3-swapped baits, to MYO3: 21.97
- Protein-protein interaction distance between Abp1 SH3-swapped baits, to MYO5: 21.47
- Protein-protein interaction distance between Abp1 SH3-swapped baits, to NBP2: 8.037
- Protein-protein interaction distance between Abp1 SH3-swapped baits, to PEX13: 21.37
- Protein-protein interaction distance between Abp1 SH3-swapped baits, to PIN3: 21.08
- Protein-protein interaction distance between Abp1 SH3-swapped baits, to RVS167: 19.5
- Protein-protein interaction distance between Abp1 SH3-swapped baits, to SDC25: 24.28
- Protein-protein interaction distance between Abp1 SH3-swapped baits, to SHO1: 16.07
- Protein-protein interaction distance between Abp1 SH3-swapped baits, to SLA1-1: 17.65
- Protein-protein interaction distance between Abp1 SH3-swapped baits, to SLA1-2: 8.845
- Protein-protein interaction distance between Abp1 SH3-swapped baits, to SLA1-3: 23.5
- Protein-protein interaction distance between Abp1 SH3-swapped baits, to YSC84: 23.88

B2: CYK3 (protein, UniProt Q07533 1-885, looked up)
Cytokinesis protein 3: MATNLTSLKPPFKVKARYGWSGQTKGDLGFLEGDIMEVTRIAGSWFYGKLLRNKKCSGYFPHNFVILLEERLNSSTENGRQPSKIVESFEKSNKVVIPPVPSRYSDERPRPKKKLSSSMPNSPKKPVDSLTKARKAKSKEMVNEKNIYNTQSSRHHNNSAPNLPLASHSKPQVRNFEESMNNPLPPLPPLPDLDNMRKTDKRAPKKSYSANDLHMARSSREYNYYKDNQKFYDGFIPEKRYSLEEDSISSGLFSNSQYLNDSACSSENSFALMSDFSATSAGSFARHKYAQSFSDSLQRSQNANGCSTKINDSQEFGDSNASSRNGKMGDILRKIIIPKRNTNIYSSSVSSPKSPKAYPKLPDIQNLNLSATPDEARDWIAVKCHLNRARTLTKYDKHPRYMRALEENRDLILHPQDSIYNGLNTNEVKGNTKPGLVDVELAELNIEYIDKMTWKRCIRDGTMTLDSWAQTTFSARYSTVLEKLRGIYIFCTEMFALTDDNGTSDFSAEPQNLEKILYRKHCTPYELTWLFKKLANSLGITCEIVIGFLKTPSAINWEFKYNHCWLRILVNKEWRFIDVILGNVTNPIHEFVNNRKIKKAENSYFLMAPLEMIYTHIPPREFEQHIVPSIDQLSALYLPLVFPSFFKNELKLYKFSTALSFLEDSEIYECSLEIPNDVEVFASVVIPTDNEEASSAYRNMELALTQIKKQKAESGRRIALIKAVLPPNVNKGSLYIHSGVRGTQTSIANIHPLSMMVPLTHKGSNMKYEFVIKIPSESIQKIELYIVEPQSRYLFVGNEYSFEVIQSPSDGIVYSSDEGPNQNRKQPMAIKSPSGRVHELVKSDPHFPYGTWKGSIKIKEPGVWSALVIADSGIGWSVFAEWLCV
- Protein-protein interaction distance between Abp1 SH3-swapped baits, to ABP1: 26.78
- Protein-protein interaction distance between Abp1 SH3-swapped baits, to BBC1: 25.11
- Protein-protein interaction distance between Abp1 SH3-swapped baits, to BEM1-1: 17.6
- Protein-protein interaction distance between Abp1 SH3-swapped baits, to BEM1-2: 11.87
- Protein-protein interaction distance between Abp1 SH3-swapped baits, to BOI1: 21.68
- Protein-protein interaction distance between Abp1 SH3-swapped baits, to BOI2: 20.06
- Protein-protein interaction distance between Abp1 SH3-swapped baits, to BUD14: 16.1
- Protein-protein interaction distance between Abp1 SH3-swapped baits, to BZZ1-1: 26.08
- Protein-protein interaction distance between Abp1 SH3-swapped baits, to BZZ1-2: 22.45
- Protein-protein interaction distance between Abp1 SH3-swapped baits, to CDC25: 5.497
- Protein-protein interaction distance between Abp1 SH3-swapped baits, to CTTN: 21.37
- Protein-protein interaction distance between Abp1 SH3-swapped baits, to CYK3: 0.00
- Protein-protein interaction distance between Abp1 SH3-swapped baits, to DBNL: 25.11
- Protein-protein interaction distance between Abp1 SH3-swapped baits, to FUS1: 14.91
- Protein-protein interaction distance between Abp1 SH3-swapped baits, to HCLS1: 28.59
- Protein-protein interaction distance between Abp1 SH3-swapped baits, to HOF1: 10.8
- Protein-protein interaction distance between Abp1 SH3-swapped baits, to HSE1: 25.16
- Protein-protein interaction distance between Abp1 SH3-swapped baits, to LSB1: 31.53
- Protein-protein interaction distance between Abp1 SH3-swapped baits, to LSB3: 31.13
- Protein-protein interaction distance between Abp1 SH3-swapped baits, to MYO3: 30.11
- Protein-protein interaction distance between Abp1 SH3-swapped baits, to MYO5: 29.49
- Protein-protein interaction distance between Abp1 SH3-swapped baits, to NBP2: 15.74
- Protein-protein interaction distance between Abp1 SH3-swapped baits, to PEX13: 29.86
- Protein-protein interaction distance between Abp1 SH3-swapped baits, to PIN3: 28.76
- Protein-protein interaction distance between Abp1 SH3-swapped baits, to RVS167: 28.09
- Protein-protein interaction distance between Abp1 SH3-swapped baits, to SDC25: 15.21
- Protein-protein interaction distance between Abp1 SH3-swapped baits, to SHO1: 24.75
- Protein-protein interaction distance between Abp1 SH3-swapped baits, to SLA1-1: 5.436
- Protein-protein interaction distance between Abp1 SH3-swapped baits, to SLA1-2: 14.43
- Protein-protein interaction distance between Abp1 SH3-swapped baits, to SLA1-3: 31.65
- Protein-protein interaction distance between Abp1 SH3-swapped baits, to YSC84: 31.42
